In data set [1] the target is T1, CUG-BP2 RRM3 wild-type (UniProt O95319 416-508, Y508W). In words: NMR 15N-HSQC titration; 25 C; RNA variant series; 20 mM K phosphate pH 5.8, 10 mM NaCl, 0.1% beta-mercaptoethanol, 25 C (NMR titrations and ITC); hnRNP A1: 10 mM Na phosphate pH 6.5, 10 mM beta-mercaptoethanol. To be noted: protein: recombinant.
Data set [2] deals with T1, CUG-BP2 RRM3 wild-type. In words: ITC; 20 mM K phosphate pH 5.8, 10 mM NaCl, 0.1% beta-mercaptoethanol, 25 C (NMR titrations and ITC); hnRNP A1: 10 mM Na phosphate pH 6.5, 10 mM beta-mercaptoethanol. To be noted: protein: recombinant. Background: In ITC the heat of successive injections is recorded.
For data set [3], the target named is T1, CUG-BP2 RRM3 wild-type. In words: NMR 15N-HSQC titration; protein mutant series; 20 mM K phosphate pH 5.8, 10 mM NaCl, 0.1% beta-mercaptoethanol, 25 C (NMR titrations and ITC); hnRNP A1: 10 mM Na phosphate pH 6.5, 10 mM beta-mercaptoethanol. Particulars: protein: recombinant.
Data set [4] has as its target CUG-BP2 RRM3 K453A (UniProt O95319 416-508, K453A;Y508W). In words: NMR 15N-HSQC titration; 20 mM K phosphate pH 5.8, 10 mM NaCl, 0.1% beta-mercaptoethanol, 25 C (NMR titrations and ITC); hnRNP A1: 10 mM Na phosphate pH 6.5, 10 mM beta-mercaptoethanol. To be noted: protein: recombinant; tags: His-tag (pET28a).
For data set [5], the target named is CUG-BP2 RRM3 K495A (UniProt O95319 416-508, K495A;Y508W). Described as above. To be noted: protein: recombinant; tags: His-tag (pET28a).
Data set [6] has as its target T2, CUG-BP2 RRM3 Y428A (UniProt O95319 416-508, Y428A;Y508W). The description is as above. Particulars: protein: recombinant; tags: His-tag (pET28a).
The target in data set [7] is T3, CUG-BP2 RRM3 F455A (UniProt O95319 416-508, F455A;Y508W). The data set is described as above. To be noted: protein: recombinant; tags: His-tag (pET28a).
In data set [8] the target is CUG-BP2 RRM3 K499A (UniProt O95319 416-508, K499A;Y508W). The description is as above. Particulars: protein: recombinant; tags: His-tag (pET28a).
The target of data set [9] is CUG-BP2 RRM3 Q497A (UniProt O95319 416-508, Q497A;Y508W). Described as above. To be noted: protein: recombinant; tags: His-tag (pET28a).
Data set [10] addresses CUG-BP2 RRM3 F426A (UniProt O95319 416-508, F426A;Y508W). The data set is described as above. To be noted: protein: recombinant; tags: His-tag (pET28a).
Data set [11] has as its target T4, CUG-BP2 RRM3 H429A (UniProt O95319 416-508, H429A;Y508W). The data set is described as above. Particulars: protein: recombinant; tags: His-tag (pET28a).
Data set [12] deals with T1, CUG-BP2 RRM3 wild-type. Described as above. To be noted: protein: recombinant.
Data set [13] addresses T2, CUG-BP2 RRM3 Y428A. Put plainly: ITC; 25 C; 20 mM K phosphate pH 5.8, 10 mM NaCl, 0.1% beta-mercaptoethanol, 25 C (NMR titrations and ITC); hnRNP A1: 10 mM Na phosphate pH 6.5, 10 mM beta-mercaptoethanol. To be noted: protein: recombinant; tags: His-tag (pET28a).
Data set [14] concerns the target T3, CUG-BP2 RRM3 F455A. Described as above. To be noted: protein: recombinant; tags: His-tag (pET28a).
Data set [15] deals with T1, CUG-BP2 RRM3 wild-type. Described as above. To be noted: protein: recombinant.
For data set [16], the target named is T4, CUG-BP2 RRM3 H429A. Described as above. To be noted: protein: recombinant; tags: His-tag (pET28a).
Data set [17] addresses T1, CUG-BP2 RRM3 wild-type. In words: NMR 15N-HSQC titration; 25 C; multiple registers; 20 mM K phosphate pH 5.8, 10 mM NaCl, 0.1% beta-mercaptoethanol, 25 C (NMR titrations and ITC); hnRNP A1: 10 mM Na phosphate pH 6.5, 10 mM beta-mercaptoethanol. Particulars: protein: recombinant.

T1 sequence (O95319 416-508 Y508W): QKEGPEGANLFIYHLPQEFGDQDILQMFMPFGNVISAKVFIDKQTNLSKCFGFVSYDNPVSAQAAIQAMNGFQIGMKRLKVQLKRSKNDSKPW
T2 sequence (O95319 416-508 Y428A/Y508W): as the sequence (O95319 416-508 Y508W) above, with Y13A counted along it
T3 sequence (O95319 416-508 F455A/Y508W): as the sequence (O95319 416-508 Y508W) above, with F40A counted along it
T4 sequence (O95319 416-508 H429A/Y508W): as the sequence (O95319 416-508 Y508W) above, with H14A counted along it
CUG-BP2 RRM3 F426A, sequence (O95319 416-508 F426A/Y508W): as the sequence (O95319 416-508 Y508W) above, with F11A counted along it
CUG-BP2 RRM3 K495A, sequence (O95319 416-508 K495A/Y508W): as the sequence (O95319 416-508 Y508W) above, with K80A counted along it
CUG-BP2 RRM3 K499A, sequence (O95319 416-508 K499A/Y508W): as the sequence (O95319 416-508 Y508W) above, with K84A counted along it
CUG-BP2 RRM3 Q497A, sequence (O95319 416-508 Q497A/Y508W): as the sequence (O95319 416-508 Y508W) above, with Q82A counted along it
CUG-BP2 RRM3 K453A, sequence (O95319 416-508 K453A/Y508W): as the sequence (O95319 416-508 Y508W) above, with K38A counted along it

B1: UUUAA (ssRNA)
RNA: UUUAA
As a reminder, the Kd is the free concentration of one partner at which half of the binding sites on the other are occupied at equilibrium, for simple one-to-one binding. As for B1, the Kd in [1] was 66 ± 14 µM; in data set [2], 18 µM; in data set [3], 62 ± 12 µM; in data set [4] it was 78 ± 13 µM; in data set [5] it was 63 ± 6 µM; in [6], 27 ± 3 µM. For the same molecule, the Kd in data set [7] is 41 ± 5 µM; in data set [8], 91 ± 18 µM; in [9] it was 60 ± 10 µM; in [10] it was 139 ± 10 µM; in [11] it was 30 ± 4 µM.

B2: UCUAA (ssRNA)
RNA: UCUAA
In the case of B2, the Kd in [12] stood at 76 ± 27 µM.

B3: UUUCA (ssRNA)
RNA: UUUCA
As for B3, in data set [12], the Kd is 73 ± 13 µM.

B4: UUCAA (ssRNA)
RNA: UUCAA
Take B4: in data set [12], the Kd was found to be 56 ± 12 µM.

B5: UUUAC (ssRNA)
RNA: UUUAC
On to B5, for which the Kd in data set [12] came out at 56 ± 8 µM.

B6: UGUGU (ssRNA)
RNA: UGUGU
With B6, the Kd in data set [13] amounted to 0.31 ± 0.01 µM; in data set [14], 10.4 ± 0.87 µM; in [15], 1.04 ± 0.04 µM; in data set [16], 0.27 ± 0.05 µM.

B7: CUUAA (ssRNA)
RNA: CUUAA
For the molecule B7, the Kd in data set [12] was 54 ± 9 µM.

B8: AUUUAAUU (ssRNA)
RNA: AUUUAAUU
In the case of B8, the Kd in data set [17] was 31 ± 9 µM.

For the origin of these results see article PMC5608764, “Aromatic side-chain conformational switch on the surface of the RNA Recognition Motif enables RNA discrimination”.
